Assay results taken from patent publication US6043211A, “Method for inhibiting the activity of a platelet-derived growth factor receptor binding protein” (The Regents of the University of California, priority 1995, dated 2000).
Entries after “also recorded” stand apart in the source; their conditions may differ. Square brackets hold non-standard residues; d marks the D form. Ends that are not written are not given here. Peptide text beside a SMILES is read from it. pY = N[C@@H](Cc1ccc(OP(=O)(O)O)cc1)C(=O)O

Columns and labels:
[1] = molecular target: T1, 85 kD protein association with type B PDGF receptor (Mus musculus, UniProt P26450); assay: In vitro association of 85 kD phosphoprotein with immobilized baculovirus-expressed PDGF receptor (in vitro kinase assay); format: binding; conditions: peptides (50 μM) preincubated with unstimulated 3T3 lysate, FIG. 4a
T1 construct: Cytoplasmic cell lysates from density-arrested BALB/c 3T3 cells were mixed with the immobilized receptor; endogenous in cells; host or cells: BALB/c 3T3 cell lysate (85 kD protein); receptor made in Sf9 insect cells with recombinant baculovirus
T1 sequence (P26450 whole entry): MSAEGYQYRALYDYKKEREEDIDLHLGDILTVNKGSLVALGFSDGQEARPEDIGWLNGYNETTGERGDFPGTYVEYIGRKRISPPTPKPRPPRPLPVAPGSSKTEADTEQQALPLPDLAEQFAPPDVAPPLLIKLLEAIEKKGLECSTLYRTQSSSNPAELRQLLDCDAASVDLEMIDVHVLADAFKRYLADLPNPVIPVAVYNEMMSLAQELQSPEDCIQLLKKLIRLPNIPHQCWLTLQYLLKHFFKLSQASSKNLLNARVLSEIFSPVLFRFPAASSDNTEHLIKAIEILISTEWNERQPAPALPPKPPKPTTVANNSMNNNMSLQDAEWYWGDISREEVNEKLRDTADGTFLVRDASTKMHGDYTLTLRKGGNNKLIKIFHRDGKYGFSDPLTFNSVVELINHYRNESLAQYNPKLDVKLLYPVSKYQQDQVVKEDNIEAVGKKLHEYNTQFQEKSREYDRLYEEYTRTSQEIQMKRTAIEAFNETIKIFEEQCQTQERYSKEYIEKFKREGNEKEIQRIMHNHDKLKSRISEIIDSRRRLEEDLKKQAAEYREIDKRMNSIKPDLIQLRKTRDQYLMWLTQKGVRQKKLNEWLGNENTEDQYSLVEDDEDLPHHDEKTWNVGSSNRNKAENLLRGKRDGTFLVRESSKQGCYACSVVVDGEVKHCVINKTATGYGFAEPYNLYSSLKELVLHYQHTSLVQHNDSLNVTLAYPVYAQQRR
T1 sequence (P42337 whole entry partner): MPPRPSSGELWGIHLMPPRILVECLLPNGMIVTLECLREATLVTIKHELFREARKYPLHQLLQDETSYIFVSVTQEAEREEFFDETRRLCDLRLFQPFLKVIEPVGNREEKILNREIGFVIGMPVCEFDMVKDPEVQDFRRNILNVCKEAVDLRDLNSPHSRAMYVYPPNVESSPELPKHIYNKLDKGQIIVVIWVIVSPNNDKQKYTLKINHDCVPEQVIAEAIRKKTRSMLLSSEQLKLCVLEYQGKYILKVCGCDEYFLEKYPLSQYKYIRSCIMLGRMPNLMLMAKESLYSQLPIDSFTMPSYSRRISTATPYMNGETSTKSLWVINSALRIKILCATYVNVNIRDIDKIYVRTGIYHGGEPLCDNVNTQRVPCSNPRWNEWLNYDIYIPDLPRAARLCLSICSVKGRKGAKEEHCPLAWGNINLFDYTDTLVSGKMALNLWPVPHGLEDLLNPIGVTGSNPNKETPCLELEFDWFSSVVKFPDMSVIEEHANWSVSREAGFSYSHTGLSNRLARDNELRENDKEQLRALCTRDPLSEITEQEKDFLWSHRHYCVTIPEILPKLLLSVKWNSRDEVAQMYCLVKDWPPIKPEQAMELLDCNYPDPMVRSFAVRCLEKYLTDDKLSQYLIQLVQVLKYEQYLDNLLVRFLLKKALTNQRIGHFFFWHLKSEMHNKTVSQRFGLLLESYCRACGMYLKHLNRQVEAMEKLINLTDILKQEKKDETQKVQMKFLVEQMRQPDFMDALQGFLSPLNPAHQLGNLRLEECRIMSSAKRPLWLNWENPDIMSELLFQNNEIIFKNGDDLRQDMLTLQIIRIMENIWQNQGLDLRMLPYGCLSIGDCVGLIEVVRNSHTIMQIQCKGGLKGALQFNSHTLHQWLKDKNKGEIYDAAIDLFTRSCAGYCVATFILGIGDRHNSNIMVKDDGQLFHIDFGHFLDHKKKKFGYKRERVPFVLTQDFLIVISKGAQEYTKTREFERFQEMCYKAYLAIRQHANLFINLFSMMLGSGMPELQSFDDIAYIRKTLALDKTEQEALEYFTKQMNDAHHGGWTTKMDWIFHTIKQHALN
Description: In in vitro experiments, the type B PDGF receptor was expressed in an insect cell expression system, partially purified, and immobilized using anti-receptor antibodies and protein A Sepharose. The receptor was allowed to autophosphorylate in vitro, so that it would be in a conformation that mimicked the ligand-activated state of the receptor. Cytoplasmic cell lysates from density-arrested BALB/c 3T3 cells were mixed with the immobilized receptor and the complexes were washed extensively. […] The receptor-associated phosphoproteins were detected by an in vitro kinase assay using ^32 P-ATP.
To determine the ability of a series of synthetic peptides derived from this sequence to block the interaction between the receptor and the 85 kD/PI3 kinase activity, 3T3 lysates were incubated with the different peptides prior to mixing with immobilized receptor. […] The other lanes show the proteins that associated with the receptor in the presence of derivatives of the Y719 peptide.
Infected cells were washed twice with cold PBS and lysed in 1 ml of lysis buffer (1% NP-40, 20 mM Tris (pH 8.0), 173 mM NaCl, 10% glycerol, 2 mM EDTA, 1 mM phenylmethylsulfonylfluoride (PMSF), aprotinin (0.15 U/ml), 20 μM leupeptin, 1 mM sodium orthovanadate) at 4° C. for 20 min with rocking. In most experiments (except where indicated in the legend of FIG. 3) the immunoprecipitated receptor was autophosphorylated in vitro by incubating the immune complexes in a buffer containing 20 mM Tris (pH 7.5), 20 mM MnCl, 100 μM ATP for 15 min at 25° C. Lysates were cleared of insoluble material by centrifugation at 13,000× g for 10 min. Lysates were incubated with receptor antibodies (1:500 dilution) for 4 h at 4° C. Receptor-antibody complexes were precipitated using Protein-A sepharose (Sigma) and washed consecutively with RIPA buffer (lysis buffer with 0.1% SDS), wash buffer 1 [0.5% NP-40, 0.5 M LiCl, 50 mM Tris (pH 7.4)] and with 10 mM Tris (pH 7.4). The PI3 kinase association assay was performed by incubating the immobilized receptor with BALB c/3T3 cell lysates for 3 hours at 4° C. The immune complexes were consecutively washed with cold PBS; 0.5% NP-40, 0.5 M LiCl and 51 50 mM Tris (pH 7.4).

[2] = molecular target: T2, PI3 kinase association with type B PDGF receptor (Mus musculus, UniProt P26450); assay: In vitro association of PI3 kinase activity with immobilized baculovirus-expressed PDGF receptor; format: binding; conditions: for Blocking of association of PI3 kinase activity with the receptor: peptides (50 μM) preincubated with unstimulated 3T3 lysate, FIG. 4b
T2 construct: Cytoplasmic cell lysates from density-arrested BALB/c 3T3 cells were mixed with the immobilized receptor; endogenous in cells; host or cells: BALB/c 3T3 cell lysate (85 kD protein); receptor made in Sf9 insect cells with recombinant baculovirus
T2 sequence (P26450 whole entry): as the sequence (P26450 whole entry) above
T2 sequence (P42337 whole entry partner): as the sequence (P42337 whole entry partner) above
Description: An in vitro system was used to study the interaction of PDGF receptors and PI3 kinase. […] These phosphoproteins include the 85 kDa protein and a 110 kDa protein that have recently been correlated with PI3 kinase activity. In in vitro experiments, the type B PDGF receptor was expressed in an insect cell expression system, partially purified, and immobilized using anti-receptor antibodies and protein A Sepharose. The receptor was allowed to autophosphorylate in vitro, so that it would be in a conformation that mimicked the ligand-activated state of the receptor. Cytoplasmic cell lysates from density-arrested BALB/c 3T3 cells were mixed with the immobilized receptor and the complexes were washed extensively. PI3 kinase activity was found in the complex of proteins associated with the receptor (FIG. 1d). The receptor-associated phosphoproteins were detected by an in vitro kinase assay using ^32 P-ATP. At least four receptor-associated proteins with apparent molecular weights of 140 kD, 120/110 kD (sometimes a doublet), 85 kD and 74 kD were radiolabeled (the bands at 160 kD and 150 kD are the baculovirus-expressed receptor and its precursor, respectively). The 140 kD band has been previously identified as […] and the band at 74 kD includes the raf-1 kinase and probably another molecule as well. The 85 kD protein co-migrated with the 85 kD band, previously considered to be PI3 kinase, in anti-phosphotyrosine immunoprecipitates of cell lysates prepared from PDGF-stimulated cells. The association of 85 and 110 kD proteins with the baculovirus-expressed receptor was also observed by silver stain analysis.
To determine the ability of a series of synthetic peptides derived from this sequence to block the interaction between the receptor and the 85 kD/PI3 kinase activity, 3T3 lysates were incubated with the different peptides prior to mixing with immobilized receptor. […] The arrow indicates the position of the 85 kD protein that co-purified with the PI3 kinase activity. […]

[3] = molecular target: T3, 85 kD protein (Mus musculus, UniProt P26450); assay: Receptor blot: 32P-labeled PDGF receptor probe binding to immobilized 85 kD protein; conditions: 2.5 μM peptide, FIG. 7
T3 construct: Cytoplasmic cell lysates from density-arrested BALB/c 3T3 cells were mixed with the immobilized receptor; endogenous in cells; host or cells: BALB/c 3T3 cell lysate (85 kD protein); receptor made in Sf9 insect cells with recombinant baculovirus
T3 sequence (P26450 whole entry): as the sequence (P26450 whole entry) above
T3 sequence (P42337 whole entry partner): as the sequence (P42337 whole entry partner) above
Description: FIG. 7 illustrates the association of soluble radiolabeled receptor with immobilized 85 kD protein ("receptor blot"). Baculovirus-expressed PDGF receptors were immunoprecipitated using receptor antibodies and the receptor was ^32 P-labeled in vitro by autophosphorylation. The solubilized radiolabeled receptor was used to probe nitrocellulose filters containing SDS-polyacrylamide gel-fractionated lysates from control (lanes 1, 3, 4 and 5) or PDGF stimulated (lane 2) cells. In the peptide competition experiments (lane 3, 4, and 5) the peptides were added to the nitrocellulose paper along with the radiolabeled receptor probe. The arrow indicates the position of the 85 kD protein.
To determine the nature of the interaction of the receptor with the 85 kD protein, a modification of Western blotting methodology was used. PDGF receptor from Sf9 cells infected with PDGF receptor baculovirus was immuno precipitated with receptor antibodies, labeled with ^32 P in vitro, and used as a probe to bind proteins from 3T3 cell lysates that had been separated electrophoretically and transferred to nitrocellulose. The radiolabeled PDGF receptor bound directly to an 85 kDa protein in unstimulated 3T3 cell lysate (FIG. 7, lane 1). […] The direct binding interaction appears to involve the 20 amino acid segment in the kinase insert region containing tyrosine 719, and tyrosine phosphorylation of this segment appears to be necessary for the interaction.
Cell lysate proteins transferred to nitrocellulose membranes were analyzed for their ability to bind directly to the PDGF receptor by probing the nitrocellulose membrane with ^32 P-labeled PDGF receptor. To prepare the radiolabeled receptor probe, baculovirus-expressed receptor was immunoprecipitated from 10^6 Sf9 cells. The immune complexes were washed and labeled by autophosphorylation as described above. Labeled receptor was solubilized from the immunoprecipitates by repeated incubation of the immunoprecipitate in solubilization buffer (0.4% SDS, 100 mM NaCl, 2 mM EDTA, 2 mM β-mercaptoethanol, and 50 mM triethanolamine, pH 7.4) at 100° C. for 2 min. […]

[4] = molecular target: T4, transfected type B human receptor (Homo sapiens, UniProt P09619); assay: Competitive binding of PDGF forms against 125I-PDGF on CHO transfectants (CHO-HR5)
T4 construct: expressed in transfected cells; host or cells: CHO (clone CHO-HR5), plasmid pSVRH5
T4 sequence (P09619 33-1106): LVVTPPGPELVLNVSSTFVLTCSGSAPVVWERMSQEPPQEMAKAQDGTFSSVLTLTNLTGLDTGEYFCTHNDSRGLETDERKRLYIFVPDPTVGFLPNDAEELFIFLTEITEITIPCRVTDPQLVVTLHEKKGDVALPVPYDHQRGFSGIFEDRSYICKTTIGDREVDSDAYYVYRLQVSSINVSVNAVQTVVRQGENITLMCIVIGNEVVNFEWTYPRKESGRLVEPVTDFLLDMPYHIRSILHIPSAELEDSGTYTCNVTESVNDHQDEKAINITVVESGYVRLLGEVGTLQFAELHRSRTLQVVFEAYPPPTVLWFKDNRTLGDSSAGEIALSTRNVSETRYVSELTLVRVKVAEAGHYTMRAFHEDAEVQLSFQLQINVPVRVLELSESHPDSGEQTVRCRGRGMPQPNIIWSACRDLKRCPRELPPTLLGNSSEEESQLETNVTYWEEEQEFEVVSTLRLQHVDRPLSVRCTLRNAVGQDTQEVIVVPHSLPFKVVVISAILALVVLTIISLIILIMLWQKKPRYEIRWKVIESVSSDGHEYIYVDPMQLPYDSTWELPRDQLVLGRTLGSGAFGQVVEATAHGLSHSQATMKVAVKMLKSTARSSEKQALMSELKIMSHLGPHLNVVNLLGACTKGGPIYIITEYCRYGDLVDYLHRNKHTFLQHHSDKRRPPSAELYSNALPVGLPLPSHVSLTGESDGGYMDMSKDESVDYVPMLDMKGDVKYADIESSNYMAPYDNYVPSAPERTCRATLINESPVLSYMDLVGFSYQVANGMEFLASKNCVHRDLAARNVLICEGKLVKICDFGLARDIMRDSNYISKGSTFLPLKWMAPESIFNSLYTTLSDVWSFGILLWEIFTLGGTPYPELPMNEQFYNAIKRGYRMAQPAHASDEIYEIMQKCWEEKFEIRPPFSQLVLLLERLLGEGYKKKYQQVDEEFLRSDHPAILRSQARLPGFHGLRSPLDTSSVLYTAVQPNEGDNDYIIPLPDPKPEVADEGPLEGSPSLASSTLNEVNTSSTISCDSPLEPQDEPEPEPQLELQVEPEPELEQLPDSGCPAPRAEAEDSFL
Method: Binding was carried out at 37° C. for 45 min in whole cell suspension.

[5] = tested on: native mouse receptor; assay: Competitive binding of PDGF forms against 125I-PDGF on BALB/c 3T3 cells; conditions: mouse 3T3 cells, yeast-expressed homodimers
Description: The ability of the human recombinant AA and BB homodimers to compete for the type B receptor sites and displace ^125 I-labeled PDGF (prepared as described below) was studied. Each homodimer was produced selectively by a yeast expression system and was purified from yeast media that is devoid of other mesenchymal cell growth factors, thus avoiding the artifact of contamination by factors that might be present in mammalian expression systems.
BALB/c 3T3 cells and CHO transfectants (CHO-HR5) were incubated with ^125 I-PDGF in the presence of increasing concentrations of AA or BB. Binding was carried out at 37° C. for 45 min in whole cell suspension. Unbound, radiolabeled PDGF was removed by centrifugation on a Ficoll gradient Non-specific binding, determined by incubating CHO cells with ^125 I-PDGF, accounted for 25 percent of the bound radioactivity.

[6] = molecular target: T5, type B receptor tyrosine kinase (Homo sapiens, UniProt P09619); assay: Activation of PDGF receptor tyrosine kinase (autophosphorylation, anti-phosphotyrosine Western blot) in CHO-HR5; format: cell-based; conditions: transfected human receptor
T5 construct: expressed in transfected cells; host or cells: CHO (clone CHO-HR5), plasmid pSVRH5
T5 sequence (P09619 33-1106): as above
Description: Following polyacrylamide-SDS electrophoresis, the phosphorylated receptor was identified by Western blot using an anti-phosphotyrosine antibody.

Row | Molecule | Blocking of binding of the 85 kD phosphoprotein to the receptor [1] | Effect on association of radiolabeled receptor with immobilized 85 kD protein (receptor blot) [3] | other results
1 | CC[C@H](C)[C@H](NC(=O)[C@H](CO)NC(=O)[C@H](CCC(=O)O)NC(=O)[C@H](CC(=O)O)NC(=O)[C@H](CCCCN)NC(=O)[C@H](CO)NC(=O)[C@H](CCSC)NC(=O)[C@H](CC(=O)O)NC(=O)[C@H](CCSC)NC(=O)[C@H](Cc1ccc(OP(=O)(O)O)cc1)NC(=O)CNC(=O)CN)C(=O)N[C@@H](CC(=O)O)C(=O)O [Y708P short] | had blocking activity | – | –
2 | CC[C@H](C)[C@H](NC(=O)[C@H](CO)NC(=O)[C@H](CCC(=O)O)NC(=O)[C@H](CC(=O)O)NC(=O)[C@H](CCCCN)NC(=O)[C@H](CO)NC(=O)[C@H](CCSC)NC(=O)[C@H](CC(=O)O)NC(=O)[C@H](CCSC)NC(=O)[C@H](Cc1ccc(OP(=O)(O)O)cc1)NC(=O)CNC(=O)CN)C(=O)N[C@@H](CC(=O)O)C(=O)N[C@@H](Cc1ccc(OP(=O)(O)O)cc1)C(=O)N[C@H](C(=O)N1CCC[C@H]1C(=O)N[C@@H](CCSC)C(=O)N[C@@H](CC(C)C)C(=O)N[C@@H](CC(=O)O)C(=O)N[C@@H](CCSC)C(=O)O)C(C)C [Y708P/Y719P] | blocked binding of the 85 kD protein | – | –
3 | CC[C@H](C)[C@H](NC(=O)[C@H](CO)NC(=O)[C@H](CCC(=O)O)NC(=O)[C@H](CC(=O)O)NC(=O)[C@H](CCCCN)NC(=O)[C@H](CO)NC(=O)[C@H](CCSC)NC(=O)[C@H](CC(=O)O)NC(=O)[C@H](CCSC)NC(=O)[C@H](Cc1ccc(O)cc1)NC(=O)CNC(=O)CN)C(=O)N[C@@H](CC(=O)O)C(=O)N[C@@H](Cc1ccc(OP(=O)(O)O)cc1)C(=O)N[C@H](C(=O)N1CCC[C@H]1C(=O)N[C@@H](CCSC)C(=O)N[C@@H](CC(C)C)C(=O)N[C@@H](CC(=O)O)C(=O)N[C@@H](CCSC)C(=O)O)C(C)C [Y719P] | blocked the binding of the 85 kD phosphoprotein | failed to associate with the 85 kD protein | IC50 [2]: ~5 µM
4 | CC[C@H](C)[C@H](NC(=O)[C@H](CO)NC(=O)[C@H](CCC(=O)O)NC(=O)[C@H](CC(=O)O)NC(=O)[C@H](CCCCN)NC(=O)[C@H](CO)NC(=O)[C@H](CCSC)NC(=O)[C@H](CC(=O)O)NC(=O)[C@H](CCSC)NC(=O)[C@H](Cc1ccc(O)cc1)NC(=O)CNC(=O)CN)C(=O)N[C@@H](CC(=O)O)C(=O)N[C@@H](Cc1ccc(O)cc1)C(=O)N[C@H](C(=O)N1CCC[C@H]1C(=O)N[C@@H](CCSC)C(=O)N[C@@H](CC(C)C)C(=O)N[C@@H](CC(=O)O)C(=O)N[C@@H](CCSC)C(=O)O)C(C)C [Y719] (H-GGYMDMSKDESIDYVPMLDM-OH) | No change in the pattern of receptor-associated protein | did not interfere with the association of the receptor with the 85 kD protein | –
5 | AA: Human recombinant AA homodimer of PDGF produced by a yeast expression system | – | – | Relative affinity for the transfected type B human receptor ([4]; CHO-HR5, yeast-expressed homodimers): lower affinity than the BB form; Competition for 125I-PDGF labeled sites ([4]; human receptor transfectants, 37° C., 45 min): competed; Relative affinity for the native mouse receptor [5]: lower affinity than the BB form; Activation of type B receptor tyrosine kinase (autophosphorylation) [6]: stimulated autophosphorylation of the transfected human receptor; also recorded: activates the receptor tyrosine kinase of the type B receptor
6 | AB: Human partially purified platelet-derived AB PDGF heterodimer | – | – | Activation of type B receptor tyrosine kinase (autophosphorylation) [6]: stimulated autophosphorylation of the transfected human receptor
7 | MDMSKDESIDYVPMLDM (MDMSKDESID[pY]VPMLDM) [Y719P short] | blocked binding of the 85 kD protein; also recorded: had blocking activity | – | Blocking of association of PI3 kinase activity with the receptor [2]: inhibited the association of PI3 kinase activity with the receptor
8 | MMDIKVPMDEYMSDYSDLGG (MMDIKVPMDE[pY]MSDYSDLGG; not fully specified; printed as MMDIKVPMDE*YMSDYSDLGG) [Y719P scrambled] | failed to block binding of the 85 kD protein | did not interfere with the association of the receptor with the 85 kD protein | Blocking of association of PI3 kinase activity with the receptor [2]: did not prevent the association of PI3 kinase activity with the receptor
